# B1: GHM33 scFv (scFv)
# scFv: VQLVQSGAEVKKPGSSVKVSCKASGGTFSSYAISWVRQAPGQGLEWMGGIIPIFGTANYAQKFQGRVTITADESTSTAYMELSSLRSEDTAVYYCARGRDDYYDSSAFDYWGQGTLVTVGGGGSGGGGSGGGGSGGGGSVLTQPPSVSVAPGQTARVTCGGNKIGSYSVYWYQHKPGQAPVLVVYDDSDRPSGIPERFSGSNSGNMATLTISGVEAGDEADYYCQVWDCTTDDVIFGGGTKLTVLHHHHHH
# notes: Purified soluble His6-tagged scFv expressed from pADL-20c in the E. coli periplasm; The printed VH and VL start at the second residue and stop before the end of the J region; also called mutated scFv clone (GHM33); anti-GLP-1R scFv
# B2: OD1 VHH nanobody (VHH)
# VHH: VQLVESGGGLVQAGGSLRLSCAASGRTFSDNTMAWHRQGPGKQRGLVAFITTGGRTVYTDSVKGRFIISRDNAKNTGFLQMNSLKPEDTAVYYCYVAGNWGQGTQVTVHH
# notes: Purified soluble His6-tagged llama VHH; also called mutated VHH clone (OD1)
# B3: LM52 VHH nanobody (VHH)
# VHH: VQLVESGGGLVQAGASLRLSCAASGGTLVNSSMGWFRQAPGKERDFVATINWRGDTTWYGESVKGRFSISRDNTKNMVYLQMNSLKPEDTAVYYCAVYRTRYYTGRRMMSPDEYDVWGQGTQVTVHH
# notes: From the mutagenized llama VHH library; likely a mutant variant of LU5
# Experiments:
# [1] = target: T1, human Glucagon-like peptide-1 receptor (GLP-1R), purified His6-tagged protein (human, UniProt P43220 24-463, limits assumed); assay: titration ELISA, apparent Kd compared with the parental scFv
# T1 construct: Recombinant human His6-tagged GLP-1R purified from Sf9 biomass and immobilised on the plate for ELISA; also called purified GLP-1R protein
# [2] = target: T1, human Glucagon-like peptide-1 receptor …; assay: titration ELISA, GLP-1R coated on the plate, purified scFv titrated; apparent Kd
# [3] = target: T2, human fatty acid amide hydrolase (FAAH), amino acids 30-579 (human, UniProt O00519 30-579); assay: SPR (Biacore T100), compared with parent A3 nanobody
# T2 construct: range 30-579; Expressed in E. coli as an MBP fusion; The MBP tag was cleaved with Factor Xa, and SPR used the untagged FAAH; also called untagged FAAH; purified human FAAH protein
# T2 sequence (looked up): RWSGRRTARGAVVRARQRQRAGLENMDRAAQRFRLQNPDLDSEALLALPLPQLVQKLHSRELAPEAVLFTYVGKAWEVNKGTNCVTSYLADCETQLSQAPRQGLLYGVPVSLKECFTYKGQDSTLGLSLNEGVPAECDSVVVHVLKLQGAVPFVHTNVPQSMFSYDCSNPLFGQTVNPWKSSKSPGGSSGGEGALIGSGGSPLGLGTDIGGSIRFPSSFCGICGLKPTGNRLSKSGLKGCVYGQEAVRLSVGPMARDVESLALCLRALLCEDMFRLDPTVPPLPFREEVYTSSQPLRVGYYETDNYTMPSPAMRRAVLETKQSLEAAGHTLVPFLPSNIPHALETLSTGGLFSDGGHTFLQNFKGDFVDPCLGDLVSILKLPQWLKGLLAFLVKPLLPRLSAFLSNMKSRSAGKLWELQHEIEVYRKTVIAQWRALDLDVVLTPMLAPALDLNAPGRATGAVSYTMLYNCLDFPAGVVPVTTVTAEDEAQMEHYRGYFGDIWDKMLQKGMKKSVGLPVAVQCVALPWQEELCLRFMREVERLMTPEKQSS
# Protocol: (§1) In some cases, scFv/VHH were further purified by gel filtration using Superdex 75 column (GE Healthcare). Proteins were concentrated using Amicon Ultra-15 10 kDa centrifugal filter unit (Millipore) and stored in PBS at −70° C. Titration ELISA. Titration ELISA was used to measure binding of purified scFv to GLP-1R. GLP-1R immobilization in a 96 well plate and blocking was carried out as described for phage ELISA. A purified scFv was prepared at varying concentrations (from 1 nM to 3 μM) in 2% MPBS. 100 μl scFv aliquot of each concentration was added to a well and incubated at RT for 1.5 h. The plate was then washed with TPBS and PBS three times each. Primary anti His-tag Mouse mAb (Cell signaling Technology, Inc.) was diluted 1:250 in 2% MPBS and added into each well. […] The absorbance was read at 450 nm, using SpectraMax iD5 microplate reader (Molecular Devices, LLC). The dissociation constant Kd was calculated according to a published protocol. […] Binding of purified VHH nanobodies to Artemin and to untagged FAAH proteins was determined using Biacore T100 instrument (GE Healthcare). […] Kinetic constants for binding interaction were determined by fitting the sensorgrams with 1:1 binding model using Biacore T100 evaluation software, version 2.0 (GE healthcare).
# [4] = target: T2, human fatty acid amide hydrolase …; assay: SPR (Biacore T100), purified VHH and untagged FAAH, 1:1 model
# Protocol: as §1
# [5] = target: T3, recombinant mouse artemin protein (Ala112-Gly224 fragment) (mouse, UniProt Q9Z0L2 112-224); assay: SPR (Biacore T100), purified VHH and mouse artemin, 1:1 model
# T3 construct: range 112-224; Bought as lyophilized powder from R&D Systems
# T3 sequence (looked up): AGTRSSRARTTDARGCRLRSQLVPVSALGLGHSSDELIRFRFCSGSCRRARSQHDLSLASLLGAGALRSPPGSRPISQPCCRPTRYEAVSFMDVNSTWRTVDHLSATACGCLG
# Protocol: as §1
binder,measurement,setting,value
B1,fold lower Kd than the parental scFv,[1],~3 fold
same,Kd,[2],100 nM
B2,fold increase in FAAH affinity compared to parent VHH A3,[3],~2.4 fold
same,Kd,[4],0.65 nM
B3,Kd,[5],102 nM

# Source: patent US20230295271A1 (UNIVERSITY OF SOUTHERN CALIFORNIA, published 2023)
